In patent US20250163162A1 (SYNTHEKINE, published 2025):

How the values were obtained:
IL10Rα/IL2Rγ receptor [1] = target: T1, IL10Rα/IL2Rγ receptor (human, UniProt Q13651 22-578; P31785 23-369); assay: cell-based or functional assay
T1 sequence (looked up) 1: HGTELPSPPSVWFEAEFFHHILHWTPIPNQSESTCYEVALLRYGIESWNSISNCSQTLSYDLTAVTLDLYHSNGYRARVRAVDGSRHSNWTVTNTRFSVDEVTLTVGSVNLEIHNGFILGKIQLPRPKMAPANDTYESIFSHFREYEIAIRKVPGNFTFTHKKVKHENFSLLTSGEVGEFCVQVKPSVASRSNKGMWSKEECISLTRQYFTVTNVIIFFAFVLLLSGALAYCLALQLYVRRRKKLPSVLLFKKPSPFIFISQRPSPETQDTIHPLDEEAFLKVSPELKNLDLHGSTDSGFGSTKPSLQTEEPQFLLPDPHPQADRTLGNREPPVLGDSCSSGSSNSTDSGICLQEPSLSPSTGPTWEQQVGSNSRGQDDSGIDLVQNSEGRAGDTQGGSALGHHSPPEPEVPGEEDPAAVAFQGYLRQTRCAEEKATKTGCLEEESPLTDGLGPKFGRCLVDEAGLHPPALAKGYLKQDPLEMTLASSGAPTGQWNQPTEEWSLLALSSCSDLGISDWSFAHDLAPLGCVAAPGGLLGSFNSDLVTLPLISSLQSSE
T1 sequence (looked up) 2: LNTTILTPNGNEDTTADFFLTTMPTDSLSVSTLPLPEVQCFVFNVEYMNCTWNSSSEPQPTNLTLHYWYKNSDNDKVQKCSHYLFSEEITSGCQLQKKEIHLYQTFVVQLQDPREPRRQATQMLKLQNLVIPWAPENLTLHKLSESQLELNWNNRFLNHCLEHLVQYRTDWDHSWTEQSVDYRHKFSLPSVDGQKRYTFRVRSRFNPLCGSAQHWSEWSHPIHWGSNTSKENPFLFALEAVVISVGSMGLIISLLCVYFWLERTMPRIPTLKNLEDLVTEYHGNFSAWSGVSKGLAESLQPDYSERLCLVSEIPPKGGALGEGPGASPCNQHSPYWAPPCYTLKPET

IL10Rα/IL2Rγ receptor [2] = target: T1, IL10Rα/IL2Rγ receptor; assay: cell-based or functional assay; remark: listed apart in the source
IL10Rα/IL2Rγ receptor [3] = target: T1, IL10Rα/IL2Rγ receptor; assay: cell-based or functional assay; remark: listed apart in the source
IL10Rα/IL2Rγ receptor [4] = target: T1, IL10Rα/IL2Rγ receptor; assay: cell-based or functional assay; remark: listed apart in the source
IL10Rα/IL2Rγ receptor [5] = target: T1, IL10Rα/IL2Rγ receptor; assay: cell-based or functional assay; remark: listed apart in the source
IL10Rα/IL2Rγ receptor [6] = target: T1, IL10Rα/IL2Rγ receptor; assay: cell-based or functional assay; remark: listed apart in the source
[7] = target: T2, cIL2Rg-Fc (lot#P210115SV5) (cynomolgus, UniProt A0A2K5VGJ6 23-262); assay: SPR (Biacore T200); ratio experimental/calculated Rmax
T2 construct: Named only by lot number; also called cynomolgus IL2Rg-Fc; not shown: Fc of the fusion protein
T2 sequence: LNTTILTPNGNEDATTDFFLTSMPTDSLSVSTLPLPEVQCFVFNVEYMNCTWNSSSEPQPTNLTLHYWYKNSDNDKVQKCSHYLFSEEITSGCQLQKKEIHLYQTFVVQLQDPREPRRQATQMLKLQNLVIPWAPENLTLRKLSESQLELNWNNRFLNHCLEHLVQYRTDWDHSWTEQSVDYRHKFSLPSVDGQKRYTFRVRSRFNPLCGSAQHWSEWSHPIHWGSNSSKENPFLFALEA

[8] = target: T3, hIL2Rg-Fc (SinoBiological cat#10555) (human, UniProt P31785 23-254, limits assumed); assay: as above
T3 construct: Bought Fc fusion (SinoBiological cat#10555); P31785 is printed for hCD132 in the background; also called human IL2Rg-Fc; not shown: Fc of the bought fusion protein
T3 sequence (looked up): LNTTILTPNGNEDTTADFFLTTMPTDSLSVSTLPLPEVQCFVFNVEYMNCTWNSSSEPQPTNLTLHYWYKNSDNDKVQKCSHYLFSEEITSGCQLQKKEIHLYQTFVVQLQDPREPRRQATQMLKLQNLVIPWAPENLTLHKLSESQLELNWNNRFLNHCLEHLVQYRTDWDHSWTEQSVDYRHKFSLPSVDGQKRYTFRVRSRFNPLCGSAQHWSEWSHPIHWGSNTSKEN

[9] = target: T2, cIL2Rg-Fc (lot#P210115SV5); assay: SPR (Biacore T200), Fc-fused ligand captured on chip, dual VHH as analyte, 1:1 Langmuir fit
Description: (§1) All experiments were conducted in 10 mM Hepes, 150 mM NaCl, 0.05% (v/v) Polysorbate 20 (PS20) and 3 mM EDTA (HBS-EP+ buffer) on a Biacore T200 instrument equipped with Protein A or CAP biotin chips (Cytiva). For experiments on Protein A chips, Fc-fused ligands were flowed at 5 μl/min for variable time ranging from 18 to 300 seconds, reaching the capture loads listed in the tables below. Following ligand capture, injections of a 2-fold dilution series of analyte typically comprising at least five concentrations between 1 μM and 1 nM were performed in either high performance or single cycle kinetics mode. Surface regeneration was achieved by flowing 10 mM glycine-HCl, pH 1.5 (60 seconds, […]). Buffer-subtracted sensograms were processed with Biacore T200 Evaluation Software and globally fit with a 1:1 Langmuir binding model (bulk shift set to zero) to extract kinetics and affinity constants (kₐ, kd, KD). RMAX<100 RU indicates surface density compatible with kinetics analysis. Experiments on CAP chips were performed as described above with an additional capture step of Biotin CAPture reagent (10 seconds, 40 uL/min) performed prior to capture of biotinylated ligands. Calculated Rmax were generated using the equation Rmax=Load (RU) x valency of ligand x (Molecular weight of analyte/Molecular weight of ligand. Surface activity was defined as the ratio experimental/calculated Rmax. The results of these experiments are provided in below for sample information and experimental results.

[10] = target: T3, hIL2Rg-Fc (SinoBiological cat#10555); assay: as above
Description: as §1

B1: DR471(DR241-DR231) (bispecific antibody)
chain: QVQLQESGGGSVQAGGSLRLSCAASGYSNCSYDMTWYRQAPGKEREFVSAIHSDGSTRYADSVKGRFFISQDNAKNTVYLQMNSLKPEDTAMYYCKTDPLHCRAHGGSWYSVRANYWGQGTQVTVSSGGGSQVQLQESGGGSVQAGGSLRLSCTASGFTFDDREMNWYRQAPGNECELVSTISSDGSTYYADSVKGRFTISQDNAKNTVYLQMDSVKPEDTAVYYCAADFMIAIQAPGAGCWGQGTQVTVSSASHHHHHH
pSTAT3 MFI, CD4 T cells, 0.0001 nM (unstimulated 1887) (IL10Rα/IL2Rγ receptor [1]): 1800 MFI
pSTAT3 MFI, CD4 T cells, 0.001 nM (unstimulated 1887) (IL10Rα/IL2Rγ receptor [1]): 1860 MFI
pSTAT3 MFI, CD4 T cells, 0.01 nM (unstimulated 1887) (IL10Rα/IL2Rγ receptor [1]): 1860 MFI
pSTAT3 MFI, CD4 T cells, 0.1 nM (unstimulated 1887) (IL10Rα/IL2Rγ receptor [1]): 2250 MFI
pSTAT3 MFI, CD4 T cells, 1 nM (unstimulated 1887) (IL10Rα/IL2Rγ receptor [1]): 4600 MFI
pSTAT3 MFI, CD4 T cells, 10 nM (unstimulated 1887) (IL10Rα/IL2Rγ receptor [1]): 6800 MFI
pSTAT3 MFI, CD4 T cells, 100 nM (unstimulated 1887) (IL10Rα/IL2Rγ receptor [1]): 6200 MFI
pSTAT3 MFI, Monocytes, 0.0001 nM (unstimulated 2116) (IL10Rα/IL2Rγ receptor [2]): 2010 MFI
pSTAT3 MFI, Monocytes, 0.001 nM (unstimulated 2116) (IL10Rα/IL2Rγ receptor [2]): 2030 MFI
pSTAT3 MFI, Monocytes, 0.01 nM (unstimulated 2116) (IL10Rα/IL2Rγ receptor [2]): 2000 MFI
pSTAT3 MFI, Monocytes, 0.1 nM (unstimulated 2116) (IL10Rα/IL2Rγ receptor [2]): 1990 MFI
pSTAT3 MFI, Monocytes, 1 nM (unstimulated 2116) (IL10Rα/IL2Rγ receptor [2]): 2030 MFI
pSTAT3 MFI, Monocytes, 10 nM (unstimulated 2116) (IL10Rα/IL2Rγ receptor [2]): 2230 MFI
pSTAT3 MFI, Monocytes, 100 nM (unstimulated 2116) (IL10Rα/IL2Rγ receptor [2]): 2210 MFI
pSTAT3 MFI, B cells, 0.0001 nM (unstimulated 1193.5) (IL10Rα/IL2Rγ receptor [3]): 1110 MFI
pSTAT3 MFI, B cells, 0.001 nM (unstimulated 1193.5) (IL10Rα/IL2Rγ receptor [3]): 1120 MFI
pSTAT3 MFI, B cells, 0.01 nM (unstimulated 1193.5) (IL10Rα/IL2Rγ receptor [3]): 1110 MFI
pSTAT3 MFI, B cells, 0.1 nM (unstimulated 1193.5) (IL10Rα/IL2Rγ receptor [3]): 1110 MFI
pSTAT3 MFI, B cells, 1 nM (unstimulated 1193.5) (IL10Rα/IL2Rγ receptor [3]): 1170 MFI
pSTAT3 MFI, B cells, 10 nM (unstimulated 1193.5) (IL10Rα/IL2Rγ receptor [3]): 1340 MFI
pSTAT3 MFI, B cells, 100 nM (unstimulated 1193.5) (IL10Rα/IL2Rγ receptor [3]): 1280 MFI
pSTAT3 MFI, CD8 T cells, 0.0001 nM (unstimulated 1446) (IL10Rα/IL2Rγ receptor [4]): 1400 MFI
pSTAT3 MFI, CD8 T cells, 0.001 nM (unstimulated 1446) (IL10Rα/IL2Rγ receptor [4]): 1420 MFI
pSTAT3 MFI, CD8 T cells, 0.01 nM (unstimulated 1446) (IL10Rα/IL2Rγ receptor [4]): 1420 MFI
pSTAT3 MFI, CD8 T cells, 0.1 nM (unstimulated 1446) (IL10Rα/IL2Rγ receptor [4]): 1640 MFI
pSTAT3 MFI, CD8 T cells, 1 nM (unstimulated 1446) (IL10Rα/IL2Rγ receptor [4]): 3280 MFI
pSTAT3 MFI, CD8 T cells, 10 nM (unstimulated 1446) (IL10Rα/IL2Rγ receptor [4]): 4610 MFI
pSTAT3 MFI, CD8 T cells, 100 nM (unstimulated 1446) (IL10Rα/IL2Rγ receptor [4]): 4400 MFI
pSTAT3 MFI, B cells, 100 nM (unstimulated 1045) (IL10Rα/IL2Rγ receptor [5]): 1140 MFI
pSTAT3 MFI, CD4+ T cells, 100 nM (unstimulated 1778) (IL10Rα/IL2Rγ receptor [5]): 6240 MFI
pSTAT3 MFI, CD8+ T cells, 100 nM (unstimulated 1288) (IL10Rα/IL2Rγ receptor [5]): 4220 MFI
pSTAT3 MFI, Monocytes, 100 nM (unstimulated 1787) (IL10Rα/IL2Rγ receptor [5]): 1940 MFI
pSTAT3 MFI, NK cells, 100 nM (unstimulated 1149) (IL10Rα/IL2Rγ receptor [5]): 1700 MFI
pSTAT3 MFI, NK cells, 0.0001 nM (unstimulated 1315) (IL10Rα/IL2Rγ receptor [6]): 1230 MFI
pSTAT3 MFI, NK cells, 0.001 nM (unstimulated 1315) (IL10Rα/IL2Rγ receptor [6]): 1260 MFI
pSTAT3 MFI, NK cells, 0.01 nM (unstimulated 1315) (IL10Rα/IL2Rγ receptor [6]): 1250 MFI
pSTAT3 MFI, NK cells, 0.1 nM (unstimulated 1315) (IL10Rα/IL2Rγ receptor [6]): 1260 MFI
pSTAT3 MFI, NK cells, 1 nM (unstimulated 1315) (IL10Rα/IL2Rγ receptor [6]): 1530 MFI
pSTAT3 MFI, NK cells, 10 nM (unstimulated 1315) (IL10Rα/IL2Rγ receptor [6]): 2000 MFI
pSTAT3 MFI, NK cells, 100 nM (unstimulated 1315) (IL10Rα/IL2Rγ receptor [6]): 1940 MFI

B2: DR465(DR240-DR231) (bispecific antibody)
chain: QVQLQESGGGSVQAGGSLRLSCGASGYTYSSYCMGWFRQVPGKEREGVAVIDSDGSTSYADSVKGRFTISKDNGKNTLYLQMNSLKPEDTAMYYCAADLGHYRPPCGVLYLGMDYWGKGTQVTVSSGGGSQVQLQESGGGSVQAGGSLRLSCTASGFTFDDREMNWYRQAPGNECELVSTISSDGSTYYADSVKGRFTISQDNAKNTVYLQMDSVKPEDTAVYYCAADFMIAIQAPGAGCWGQGTQVTVSSASHHHHHH
notes: Anti-hIL10Ra/hIL2Rg dual VHH with ASH6 handle; also called H1
Surface Activity [7]: 1%
Surface Activity [8]: 4%
Kd [9]: 3.2 nM
koff [9]: 0.0022 s⁻¹
kon [9]: 700000 M⁻¹ s⁻¹
Kd [10]: 14.5 nM
koff [10]: 0.0037 s⁻¹
kon [10]: 250000 M⁻¹ s⁻¹
